The source of these data is patent US20100069815A1 (ASAHI KASEI, published 2010).

The assay has as its target T1, CD4 on CD4 positive cells in human peripheral blood (human, UniProt P01730 26-458).
T1 construct: whole, on cells; also called CD4 molecules
As to the kind of experiment: cell adsorption from human whole blood on covalently immobilized binder (GMA grafted nonwoven fabric column); flow cytometry; mean ± SD of 3. Here is the method: Immediately before the initiation of experiment, the PBS(−) solution was drained off by flowing air through the column. 5.0 ml of healthy human fresh blood containing ACD-A ([…] Laboratories) (blood:ACD-A=6.7:1) was fed from the inlet of the cell adsorber at a flow rate of 1.0 ml/min with a syringe pump. After discarding the first five drops, the treated blood was collected from the outlet of the column.
The CD4 positive cell removal rate at that time was calculated based on the change in the number of leukocytes measured by Coulter counter, and the change in the proportion of CD4 positive cells in the recovered cells measured by flow cytometry with use of a flow cytometer (FACS Calibur: Becton, Dickinson and Company). The cells were stained by the following manner. 100 μl of the collected blood was added with 10 μl of anti-CD4-PE solution (clone SK3, Becton, Dickinson and Company), 10 μl of anti-CD8-FITC solution (clone RPA-T8, Becton, Dickinson and Company), and 10 μl of anti-CD45-PerCP solution (Becton, Dickinson and Company). The resultant mixture was allowed to be stained at room temperature for 30 minutes, and then was added with 1 ml of FACS Lysing solution (Becton, Dickinson and Company) to effect hemolysis. CD45 positive cells were gated as leukocytes, and the proportion of CD4 positive cells therein was assayed.

B1: Leu3a scFv-Normal (scFv)
scFv: MADIVLTQSPASLAVSLGQRATISCKASQSVDYDGDSYMNWYQQKPGQPPKLLIYAASNLESGIPARFTGSGSGTDFTLNIHPVEEEDTATYYCQQSYEDPPTFAGGTNLEIKGGGGSGGGGSGGGGSMVHLQESEPELVKPGASVKMSCKASGYTFTDYVINWVKQRTGQGLEWIGETYTGSGSSYYNEKFKDKATLTVDKASNIAYMQLSSLTSEDSAVYFCARRGKGTGFAFWGQGTLVTVSAAAADYKDDDDKGSSEQKLISEEDLGSRSTHHHHHHGSTK
notes: Covalently immobilized on GMA grafted nonwoven fabric in the assay
Consider B1, for which the “CD4 positive cell removal rate (%)” value worked out at 29.6%.
